Sequences and labels used below:
B1: Golgin-45 (Homo sapiens), Q9H2G9 (parent)
chain: MTTKNLETKVTVTSSPIRGAGDGMETEEPPKSVEVTSGVQSRKHHSLQSPWKKAVPSESPGVLQLGKMLTEKAMEVKAVRILVPKAAITHDIPNKNTKVKSLGHHKGEFLGQSEGVIEPNKELSEVKNVLEKLKNSERRLLQDKEGLSNQLRVQTEVNRELKKLLVASVGDDLQYHFERLAREKNQLILENEALGRNTAQLSEQLERMSIQCDVWRSKFLASRVMADELTNSRAALQRQNRDAHGAIQDLLSEREQFRQEMIATQKLLEELLVSLQWGREQTYSPSVQPHSTAELALTNHKLAKAVNSHLLGNVGINNQKKIPSTVEFCSTPAEKMAETVLRILDPVTCKESSPDNPFFESSPTTLLATKKNIGRFHPYTRYENITFNCCNHCRGELIAL
B2: NAD kinase (Homo sapiens), O95544 (parent)
chain: MEMEQEKMTMNKELSPDAAAYCCSACHGDETWSYNHPIRGRAKSRSLSASPALGSTKEFRRTRSLHGPCPVTTFGPKACVLQNPQTIMHIQDPASQRLTWNKSPKSVLVIKKMRDASLLQPFKELCTHLMEENMIVYVEKKVLEDPAIASDESFGAVKKKFCTFREDYDDISNQIDFIICLGGDGTLLYASSLFQGSVPPVMAFHLGSLGFLTPFSFENFQSQVTQVIEGNAAVVLRSRLKVRVVKELRGKKTAVHNGLGENGSQAAGLDMDVGKQAMQYQVLNEVVIDRGPSSYLSNVDVYLDGHLITTVQGDGVIVSTPTGSTAYAAAAGASMIHPNVPAIMITPICPHSLSFRPIVVPAGVELKIMLSPEARNTAWVSFDGRKRQEIRHGDSISITTSCYPLPSICVRDPVSDWFESLAQCLHWNVRKKQAHFEEEEEEEEEG
B3: E3 ubiquitin-protein ligase RNF8 (Homo sapiens), O76064 (parent)
chain: MGEPGFFVTGDRAGGRSWCLRRVGMSAGWLLLEDGCEVTVGRGFGVTYQLVSKICPLMISRNHCVLKQNPEGQWTIMDNKSLNGVWLNRARLEPLRVYSIHQGDYIQLGVPLENKENAEYEYEVTEEDWETIYPCLSPKNDQMIEKNKELRTKRKFSLDELAGPGAEGPSNLKSKINKVSCESGQPVKSQGKGEVASTPSDNLDPKLTALEPSKTTGAPIYPGFPKVTEVHHEQKASNSSASQRSLQMFKVTMSRILRLKIQMQEKHEAVMNVKKQTQKGNSKKVVQMEQELQDLQSQLCAEQAQQQARVEQLEKTFQEEEQHLQGLEIAQGEKDLKQQLAQALQEHWALMEELNRSKKDFEAIIQAKNKELEQTKEEKEKMQAQKEEVLSHMNDVLENELQCIICSEYFIEAVTLNCAHSFCSYCINEWMKRKIECPICRKDIKSKTYSLVLDNCINKMVNNLSSEVKERRIVLIRERKAKRLF
partner: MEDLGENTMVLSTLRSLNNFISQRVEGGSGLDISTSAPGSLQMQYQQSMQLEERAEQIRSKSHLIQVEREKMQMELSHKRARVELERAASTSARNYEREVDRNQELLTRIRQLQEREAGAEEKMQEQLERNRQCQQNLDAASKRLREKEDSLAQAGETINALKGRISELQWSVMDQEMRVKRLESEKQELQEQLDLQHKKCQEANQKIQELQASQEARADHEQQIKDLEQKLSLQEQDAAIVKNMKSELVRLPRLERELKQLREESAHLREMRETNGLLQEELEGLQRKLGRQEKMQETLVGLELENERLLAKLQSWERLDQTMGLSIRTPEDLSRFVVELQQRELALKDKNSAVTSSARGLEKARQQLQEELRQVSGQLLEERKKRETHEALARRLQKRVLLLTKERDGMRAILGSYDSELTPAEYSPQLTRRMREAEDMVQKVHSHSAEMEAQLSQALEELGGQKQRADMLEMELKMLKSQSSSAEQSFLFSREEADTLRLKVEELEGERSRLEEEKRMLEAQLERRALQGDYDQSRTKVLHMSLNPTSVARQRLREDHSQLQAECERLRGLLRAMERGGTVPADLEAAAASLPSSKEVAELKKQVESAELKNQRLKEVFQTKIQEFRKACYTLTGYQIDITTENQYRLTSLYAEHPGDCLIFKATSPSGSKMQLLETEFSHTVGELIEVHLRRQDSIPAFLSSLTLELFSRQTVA
B4: Coiled-coil domain-containing glutamate-rich protein 1 (Homo sapiens), Q8TC90 (parent)
chain: MTQTLDTREDPLNLGGGGGGGCGCGWAHSASLSSWSSCHRRRPGAPAYNRPHRYSPKTEYGPPRKQPKQQHGPGFWFQPPVCSNWGCWGGPWRPPPPGFWKFPCPVQVFRVYGLHPLCFCCCSCWSGSWNPGWVKPPGRKKRWGRRGRGLRHHPRHSYPRSPPADVSTLPRPVKLYEWREPGMRAPPNTTQFIMNQIYEDMRQQEKVERQQEALRAQKATVSGEASPARSSGNDAPPGGSKETWGLQETLYGFVQNPSLAFSPNPEENQSLAPLLVEEEEEKKNDDEEEYDQEVCDAKEASEEEEEVEDEEEEVEDEEEEEVEEAEYVEEGEEELEEEELEEEEEVLEENEQRGEEFHLPLEMPLSIFVEAEEKRENFISCTFLNPEQIIPKVPQESLFMAQDFNC
B5: "tRNA (guanine-N(7)-)-methyltransferase non-catalytic subunit WDR4" (Homo sapiens), P57081 (parent)
chain: MAGSVGLALCGQTLVVRGGSRFLATSIASSDDDSLFIYDCSAAEKKSQENKGEDAPLDQGSGAILASTFSKSGSYFALTDDSKRLILFRTKPWQCLSVRTVARRCTALTFIASEEKVLVADKSGDVYSFSVLEPHGCGRLELGHLSMLLDVAVSPDDRFILTADRDEKIRVSWAAAPHSIESFCLGHTEFVSRISVVPTQPGLLLSSSGDGTLRLWEYRSGRQLHCCHLASLQELVDPQAPQKFAASRIAFWCQENCVALLCDGTPVVYIFQLDARRQQLVYRQQLAFQHQVWDVAFEETQGLWVLQDCQEAPLVLYRPVGDQWQSVPESTVLKKVSGVLRGNWAMLEGSAGADASFSSLYKATFDNVTSYLKKKEERLQQQLEKKQRRRSPPPGPDGHAKKMRPGEATLSC
partner: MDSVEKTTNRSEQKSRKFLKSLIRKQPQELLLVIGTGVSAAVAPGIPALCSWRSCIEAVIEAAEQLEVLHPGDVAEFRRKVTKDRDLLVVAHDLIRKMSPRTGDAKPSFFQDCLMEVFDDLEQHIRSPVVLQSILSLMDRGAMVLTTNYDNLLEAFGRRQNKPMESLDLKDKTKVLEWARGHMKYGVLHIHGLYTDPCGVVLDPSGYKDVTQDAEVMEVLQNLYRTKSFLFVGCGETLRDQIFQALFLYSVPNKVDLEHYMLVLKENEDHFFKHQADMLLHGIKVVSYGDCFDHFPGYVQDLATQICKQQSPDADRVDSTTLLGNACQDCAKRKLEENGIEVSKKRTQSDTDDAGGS
B6: Cell division cycle 7-related protein kinase (Homo sapiens), O00311 (parent)
chain: MEASLGIQMDEPMAFSPQRDRFQAEGSLKKNEQNFKLAGVKKDIEKLYEAVPQLSNVFKIEDKIGEGTFSSVYLATAQLQVGPEEKIALKHLIPTSHPIRIAAELQCLTVAGGQDNVMGVKYCFRKNDHVVIAMPYLEHESFLDILNSLSFQEVREYMLNLFKALKRIHQFGIVHRDVKPSNFLYNRRLKKYALVDFGLAQGTHDTKIELLKFVQSEAQQERCSQNKSHIITGNKIPLSGPVPKELDQQSTTKASVKRPYTNAQIQIKQGKDGKEGSVGLSVQRSVFGERNFNIHSSISHESPAVKLMKQSKTVDVLSRKLATKKKAISTKVMNSAVMRKTASSCPASLTCDCYATDKVCSICLSRRQQVAPRAGTPGFRAPEVLTKCPNQTTAIDMWSAGVIFLSLLSGRYPFYKASDDLTALAQIMTIRGSRETIQAAKTFGKSILCSKEVPAQDLRKLCERLRGMDSSTPKLTSDIQGHASHQPAISEKTDHKASCLVQTPPGQYSGNSFKKGDSNSCEHCFDEYNTNLEGWNEVPDEAYDLLDKLLDLNPASRITAEEALLHPFFKDMSL
partner: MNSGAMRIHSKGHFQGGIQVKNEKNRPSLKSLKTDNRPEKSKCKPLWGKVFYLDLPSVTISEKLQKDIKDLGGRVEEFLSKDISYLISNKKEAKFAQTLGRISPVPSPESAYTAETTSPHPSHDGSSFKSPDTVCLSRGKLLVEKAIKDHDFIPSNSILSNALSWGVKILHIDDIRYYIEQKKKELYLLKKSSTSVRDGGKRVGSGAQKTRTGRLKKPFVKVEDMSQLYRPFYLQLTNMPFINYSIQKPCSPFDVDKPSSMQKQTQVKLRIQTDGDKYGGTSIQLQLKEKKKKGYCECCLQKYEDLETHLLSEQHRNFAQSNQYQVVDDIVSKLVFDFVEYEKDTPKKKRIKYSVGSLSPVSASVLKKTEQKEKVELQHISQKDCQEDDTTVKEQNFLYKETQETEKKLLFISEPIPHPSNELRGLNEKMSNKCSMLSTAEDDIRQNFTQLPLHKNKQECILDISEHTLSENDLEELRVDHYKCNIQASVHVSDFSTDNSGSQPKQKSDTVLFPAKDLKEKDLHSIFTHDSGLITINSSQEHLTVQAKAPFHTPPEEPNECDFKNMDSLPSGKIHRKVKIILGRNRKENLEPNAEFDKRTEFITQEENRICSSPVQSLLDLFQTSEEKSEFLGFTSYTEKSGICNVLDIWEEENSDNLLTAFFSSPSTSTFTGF

Data on 8 variants can be found in IntAct's records for PubMed 31515488.

In one experiment the parent is B1. Conditions: with aakb2_human PRKAB2, O43741.
Sequence of aakb2_human PRKAB2, O43741 (O43741 whole entry): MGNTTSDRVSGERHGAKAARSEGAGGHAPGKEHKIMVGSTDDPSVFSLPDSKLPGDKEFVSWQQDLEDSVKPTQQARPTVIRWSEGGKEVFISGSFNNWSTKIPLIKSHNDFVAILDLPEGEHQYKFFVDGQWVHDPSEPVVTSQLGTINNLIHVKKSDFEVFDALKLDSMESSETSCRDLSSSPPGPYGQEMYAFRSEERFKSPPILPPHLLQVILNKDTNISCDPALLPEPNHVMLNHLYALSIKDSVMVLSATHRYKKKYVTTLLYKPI
Regarding H45R, the “effect of a mutation on the interaction” value was “with no effect”.

The variants in the next experiment derive from B1. The following applies: with rab2a_human RAB2A.
As for H45R, the “effect of a mutation on the interaction” value is given as “with no effect”.

The next experiment covers variants of B1. The following applies: with zbt24_human ZBTB24, O43167.
Sequence of zbt24_human ZBTB24, O43167 (O43167 whole entry): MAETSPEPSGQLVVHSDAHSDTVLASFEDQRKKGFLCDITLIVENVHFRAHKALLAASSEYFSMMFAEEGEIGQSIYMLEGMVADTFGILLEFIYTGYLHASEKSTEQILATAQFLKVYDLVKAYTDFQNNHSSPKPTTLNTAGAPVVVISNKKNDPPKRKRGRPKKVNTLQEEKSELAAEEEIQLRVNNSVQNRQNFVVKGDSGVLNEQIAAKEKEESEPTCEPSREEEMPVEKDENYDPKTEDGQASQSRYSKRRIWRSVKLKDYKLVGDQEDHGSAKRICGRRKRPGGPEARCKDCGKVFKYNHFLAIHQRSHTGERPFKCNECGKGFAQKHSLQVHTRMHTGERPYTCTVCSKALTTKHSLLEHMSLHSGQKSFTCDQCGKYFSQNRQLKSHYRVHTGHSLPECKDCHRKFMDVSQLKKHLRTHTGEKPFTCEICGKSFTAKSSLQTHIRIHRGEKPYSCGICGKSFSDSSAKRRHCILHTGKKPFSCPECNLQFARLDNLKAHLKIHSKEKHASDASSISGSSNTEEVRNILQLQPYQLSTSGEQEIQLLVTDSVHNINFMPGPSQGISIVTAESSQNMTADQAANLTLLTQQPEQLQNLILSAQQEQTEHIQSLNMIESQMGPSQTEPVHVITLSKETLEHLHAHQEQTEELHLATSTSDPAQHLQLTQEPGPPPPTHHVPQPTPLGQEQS
Turning to H45R, the “effect of a mutation on the interaction” value is “with no effect”.

In a further experiment the parent is B2. Conditions: with sdcb1_human SDCBP.
On to R249W, for which the “effect of a mutation on the interaction” value was “with no effect”.

Variants of B3 are the subject of the next experiment. Conditions: with md1l1_human MAD1L1, Q9Y6D9.
Take V310L: the “effect of a mutation on the interaction” value is “with no effect”.

Variants of B4 are the subject of another experiment. Conditions: with pls1_human PLSCR1, O15162.
Sequence of pls1_human PLSCR1, O15162 (O15162 whole entry): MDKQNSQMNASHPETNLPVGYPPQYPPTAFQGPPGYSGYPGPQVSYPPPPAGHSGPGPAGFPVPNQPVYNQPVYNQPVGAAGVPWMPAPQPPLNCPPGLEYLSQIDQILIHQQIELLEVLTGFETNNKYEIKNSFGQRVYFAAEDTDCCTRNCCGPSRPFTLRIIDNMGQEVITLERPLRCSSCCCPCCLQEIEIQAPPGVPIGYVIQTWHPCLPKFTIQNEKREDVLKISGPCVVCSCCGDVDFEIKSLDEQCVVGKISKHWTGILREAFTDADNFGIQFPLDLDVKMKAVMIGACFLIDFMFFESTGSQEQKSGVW
On to E293K, for which the “effect of a mutation on the interaction” value was “with no effect”.

Variants of B4 are the subject of a further experiment. Conditions: with nt2na_human NOTCH2NLA.
In the case of E293K, the “effect of a mutation on the interaction” value is recorded as “with no effect”.

The variants in a further experiment derive from B5. Conditions: with FAM118A.
Regarding A275T, the “effect of a mutation on the interaction” value is on record as “with no effect”.

The next experiment covers variants of B6. The following applies: with dbf4a_human DBF4, Q9UBU7.
Consider K416T, for which the “effect of a mutation on the interaction” value is on record as “with no effect”.
Still for that read-out and setting: to I99L belongs “with no effect”; to I99T, “with no effect”.
